Source: PMC4498696 (PLoS Pathogens, 2015)

Assays:
[1] = target: prefusion-stabilized RSV F ectodomain DS-Cav1 (strain A2), furin-cleaved trimer with foldon, tags removed (respiratory syncytial virus, strain A2 …, UniProt P03420); assay: cell-based or functional assay
[2] = target: full-length prefusion F (RSV F residues 1-574 with the DS-Cav1 stabilizing mutations) on the cell surface (Human respiratory syncytial virus A, …, UniProt P03420, stabilised); assay: flow cytometry on cells; Expi293 cells expressing RSV F 1-574 DS-Cav1 or its N426D variant; antibodies 1 μg/ml, 1 hour at 4°C; Alexa488 anti-human secondary; normalized to motavizumab binding; conditions: one partner purified
[3] = target: T1, biotinylated AviTagged prefusion RSV F DS-Cav1, subtype A (strain A2) (Human respiratory syncytial virus A, …, stabilised, biotin (by biotin ligase BirA, on the AviTag)); assay: Luminex bead binding assay; biotinylated RSV F proteins coupled to avidin-coated MagPlex beads (1 μg per 50,000 beads); IgG in 10-fold serial dilutions 1 μM to 0.1 pM; PE-conjugated anti-human IgG Fc; PBS, 0.1% BSA, 0.05% Tween 20; conditions: both partners purified
T1 construct: also called Biotinylated DS-Cav1; immobilized prefusion RSV F; source: FreeStyle 293-F, transfected, purified; biotinylated with BirA, Superdex 200; copies: 3 + 3

[4] = target: T2, biotinylated prefusion RSV F DS-Cav1, subtype B (Human respiratory syncytial virus B, …, UniProt P13843, stabilised, biotin); assay: Luminex bead binding assay; conditions: both partners purified
T2 construct: also called prefusion RSV F derived from B subtype; source: biotinylated protein coupled to avidin-coated beads; copies: 3 + 3

[5] = target: T1, biotinylated AviTagged prefusion RSV F …; assay: SPR; biotinylated DS-Cav1 immobilised on an SA chip (292 RU), Biacore X100; AM14 Fab 5 nM to 19.5 pM in HBS-EP+; 1:1 binding model; conditions: both partners purified

B1: AM14 IgG (antibody, V domains shown)
VH: EVQLVESGGGVVQPGRSLRLSCAASGFSFSHYAMHWVRQAPGKGLEWVAVISYDGENTYYADSVKGRFSISRDNSKNTVSLQMNSLRPEDTALYYCARDRIVDDYYYYGMDVWGQGATVTVSS
VL: DIQMTQSPSSLSASVGDRVTITCQASQDIKKYLNWYHQKPGKVPELLMHDASNLETGVPSRFSGRGSGTDFTLTISSLQPEDIGTYYCQQYDNLPPLTFGGGTKVEIK
- IC50 of neutralisation of RSV strain A2 (F of the virus), microneutralization on HEp-2 cells [1]: 0.0124 µg/mL
- IC50 of neutralisation of RSV strain A Long (F of the virus), microneutralization on HEp-2 cells [1]: 0.0136 µg/mL
- binding result [2]: binds
- EC50 [3]: 0.63 nM

B2: motavizumab IgG (antibody, V domains shown)
VH: QVTLRESGPALVKPTQTLTLTCTFSGFSLSTAGMSVGWIRQPPGKALEWLADIWWDDKKHYNPSLKDRLTISKDTSKNQVVLKVTNMDPADTATYYCARDMIFNFYFDVWGQGTTVTVSS
VL: DIQMTQSPSTLSASVGDRVTITCSASSRVGYMHWYQQKPGKAPKLLIYDTSKLASGVPSRFSGSGSGTEFTLTISSLQPDDFATYYCFQGSGYPFTFGGGTKVEIK
- binding result [4]: binds

B3: AM14 Fab (Fab, V domains shown)
VH: EVQLVESGGGVVQPGRSLRLSCAASGFSFSHYAMHWVRQAPGKGLEWVAVISYDGENTYYADSVKGRFSISRDNSKNTVSLQMNSLRPEDTALYYCARDRIVDDYYYYGMDVWGQGATVTVSS
VL: DIQMTQSPSSLSASVGDRVTITCQASQDIKKYLNWYHQKPGKVPELLMHDASNLETGVPSRFSGRGSGTDFTLTISSLQPEDIGTYYCQQYDNLPPLTFGGGTKVEIK
- Kd [5]: 0.18 nM
- koff [5]: 0.0034 s⁻¹
- kon [5]: 1.87e+07 M⁻¹ s⁻¹
